Patent publication US20200109194A1 (BLUEFIN BIOMEDICINE, published 2020)

T1: endogenous human TMEFF1 on cancer cell lines (H69, HCC1187, PA-1, H526, H1048) (human, UniProt Q8IYR6 40-380)
T1 sequence: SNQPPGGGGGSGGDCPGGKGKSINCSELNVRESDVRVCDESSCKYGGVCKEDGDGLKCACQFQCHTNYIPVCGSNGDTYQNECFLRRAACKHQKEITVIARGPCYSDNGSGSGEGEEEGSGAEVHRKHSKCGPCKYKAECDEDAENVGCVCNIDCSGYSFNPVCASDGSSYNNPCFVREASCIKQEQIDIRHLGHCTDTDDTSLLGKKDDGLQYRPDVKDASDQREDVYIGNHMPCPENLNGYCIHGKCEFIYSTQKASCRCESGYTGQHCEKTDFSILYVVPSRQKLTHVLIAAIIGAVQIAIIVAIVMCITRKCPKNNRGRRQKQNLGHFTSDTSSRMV

T2: human TMEFF1 extracellular domain recombinant protein (plasmid BBP377, S40-V330, C-terminal 8xHis) (human, UniProt Q8IYR6 40-330)
T2 construct: Secreted from CHO cells with a non-native signal peptide (not part of the mature protein); also called hTMEFF1 ECD; hTMEFF1-ECD
T2 sequence: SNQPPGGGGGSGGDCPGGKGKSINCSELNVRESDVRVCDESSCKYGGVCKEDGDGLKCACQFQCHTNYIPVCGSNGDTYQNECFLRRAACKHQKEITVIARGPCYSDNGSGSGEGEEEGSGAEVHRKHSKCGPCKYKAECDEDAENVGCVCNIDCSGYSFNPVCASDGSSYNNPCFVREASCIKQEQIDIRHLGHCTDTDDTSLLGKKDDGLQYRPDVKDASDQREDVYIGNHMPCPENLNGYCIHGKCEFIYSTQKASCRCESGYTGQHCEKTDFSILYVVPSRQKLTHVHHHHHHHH

B1: 30C10-PBD (antibody, human IgG1, V domains shown)
VH: QVQLVESGGGVVQPGRSLRLSCAASGFTFSSYGMHWVRQAPGKGLEWVAVIWYDGSDKYYADSVKGRFTISRDNSKKTLYLQMNSLRAEDTAVYFCARETIFRGLTITFFDHWGQGTLVTVSS
VL: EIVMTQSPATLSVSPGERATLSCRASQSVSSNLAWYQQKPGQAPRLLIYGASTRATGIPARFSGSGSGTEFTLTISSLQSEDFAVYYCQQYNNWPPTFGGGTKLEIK
modifications: MA-PEG8-VA-PAB-SG3199 (PBD) on TCEP-reduced hinge region thiols, sites not stated; DAR 1.7
B2: M1F1 (antibody, human IgG1, V domains shown)
VH: QVQLQESGPGLVKPSETLSLTCAVSGYSISSGYFWGWIRQPPGKKLEWIGSIYHSGSTYYNPSLKSRVTMSVDTSKNQFSLKLSSVTAADTAVYYCAREGDCSGGICYWYFDLWGRGTLVTVSS
VL: EIVMTQSPATLSVSPGERATLSCRASQSVSSNLAWYQQKPGQAPRLLIYGASTRATGIPARFSGSGSGTEVTLTISSLQSEDFAVYYCQQYNKWPLTFGGGTKVEIK
B3: 36H6 (antibody, human IgG1, V domains shown)
VH: QVQLVESGGGVVQPGRSLRLSCAASGFTFSDYGMHWVRQAPGKGLEWVAVIWYEGGNKYYTDSVKGRFTISRDNSKNTLYLQMNSLRAEDTAVYYCARILLWFGESYGMDVWGQGTTVTVSS
VL: DIQMTQSPSSLSASVGDRVTITCRASQGISNYLAWYQQKPGKVPKLLIYAASTLQSGVPSRFSGSGSGTDFTLTISSLQPEDVATYYCQKYNNAPWTFGQGTKVEIK

What was measured:
[1] = target: T1, endogenous human TMEFF1 on cancer cell …; assay: cell-based or functional assay
[2] = target: T3, Macaca fascicularis TMEFF1 extracellular domain recombinant protein (plasmid BBP480, S40-V330, C-terminal … (Macaca fascicularis)); assay: BLI (Octet Red), antibody on Protein A biosensor, recombinant cyTMEFF1 ECD as analyte
T3 construct: range 40-330; also called cyTMEFF1 ECD; monkey TMEFF1 ectodomain
Description: (§1) The affinity of antibodies to various recombinant TMEFF1 protein was determined on an Octet Red™ instrument. After loading reagents into a 96-well plate, the Octet Red™ with Protein A-conjugated biosensors was programmed as follows: 30 seconds for baseline #1; 120 seconds to immobilize the antibody; 30 seconds for baseline #2; 300 seconds for association of antibody to recombinant TMEFF1; and 300-600 seconds for dissociation of recombinant TMEFF1 from the antibody.
Affinity of 7 antibodies was calculated using cyTMEFF1 ECD recombinant protein by Octet™.

[3] = target: T2, human TMEFF1 extracellular domain …; assay: BLI (Octet Red), antibody on Protein A biosensor, recombinant hTMEFF1 ECD as analyte
Description: as §1
Affinity of thirteen antibodies was calculated using hTMEFF1 ECD recombinant protein by Octet™.

Binder	IC50 of growth of H526 cells (CellTiter Glo, 5 days) [1] [ng/mL]	IC50 of growth of H1048 cells (CellTiter Glo, 5 days) [1] [ng/mL]	Kd [2] [nM]	Kd [3] [nM]
B1	4.27	0.53		
B2			27	19
B3			96	51
